Here are results for one molecule from patent US20260250404A1 (Genmab, published 2026).

Usually EC50 (read off the curve) stands for the concentration that produces a half-maximal response. Usually Kd stands for the equilibrium constant for the complex coming apart.

The target in test [1] is T1, recombinant His-tagged human FcγRIa (Sino Biological 10256-H08S-B) (human, UniProt P12314 16-288). The test can be described thus: SPR (Biacore 8K), His-tagged FcγR captured on anti-His chip, antibody injected, relative binding response (RU), n=1. In general terms: In SPR one partner is held on a chip, and binding of the other changes the refractive index at the surface.
T1 sequence (P12314 16-288 limits assumed, stated change not applied): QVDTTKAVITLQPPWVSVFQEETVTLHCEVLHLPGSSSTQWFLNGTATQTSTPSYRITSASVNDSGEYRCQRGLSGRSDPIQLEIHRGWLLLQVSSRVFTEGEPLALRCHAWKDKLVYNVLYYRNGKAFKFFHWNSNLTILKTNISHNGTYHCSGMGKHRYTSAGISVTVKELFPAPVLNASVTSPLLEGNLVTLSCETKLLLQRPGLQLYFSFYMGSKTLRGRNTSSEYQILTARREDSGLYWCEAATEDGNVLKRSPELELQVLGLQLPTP

In test [2] the target is T2, recombinant His-tagged human FcγRIIa, 167-His [H] / H131 variant (human, UniProt P12318 34-218, limits assumed).
T2 construct: catalogue numbers differ; also called FcγRIIa-H; FcγRIIa-H131
T2 sequence (looked up): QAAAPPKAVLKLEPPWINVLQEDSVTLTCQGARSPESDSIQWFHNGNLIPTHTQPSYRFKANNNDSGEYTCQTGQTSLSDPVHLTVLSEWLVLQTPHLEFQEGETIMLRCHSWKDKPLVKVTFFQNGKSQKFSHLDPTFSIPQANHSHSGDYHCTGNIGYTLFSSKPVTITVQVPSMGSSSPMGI
Kind of test: SPR (Biacore 8K), His-tagged FcγR captured on anti-His chip, antibody injected, binding response (RU), n=3.

Test [3] concerns the target T3, recombinant His-tagged human FcγRIIa, 167-Arg [R] / R131 variant (human, UniProt P12318 34-218, limits assumed).
T3 construct: catalogue numbers differ; also called FcγRIIa-R; FcγRIIa-R131
T3 sequence (looked up): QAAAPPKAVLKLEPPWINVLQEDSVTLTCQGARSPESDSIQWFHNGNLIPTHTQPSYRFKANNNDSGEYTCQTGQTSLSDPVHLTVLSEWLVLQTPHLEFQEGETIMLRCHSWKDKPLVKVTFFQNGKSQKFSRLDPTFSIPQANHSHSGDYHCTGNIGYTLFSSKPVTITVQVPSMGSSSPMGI
Described as above.

The target of test [4] is T4, recombinant His-tagged human FcγRIIIa, 176-Val [V] / V158 variant (human, UniProt P08637 17-208).
T4 construct: also called FcγRIIIa-V; FcγRIIIa-V158
T4 sequence (P08637 other isoform, or with tags, fused parts or gaps mutant limits assumed): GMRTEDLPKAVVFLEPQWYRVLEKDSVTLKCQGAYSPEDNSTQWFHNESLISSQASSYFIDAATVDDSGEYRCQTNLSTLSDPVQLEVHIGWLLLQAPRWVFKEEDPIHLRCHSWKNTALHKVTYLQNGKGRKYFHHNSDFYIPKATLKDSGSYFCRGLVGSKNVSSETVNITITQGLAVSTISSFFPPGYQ
The test is described as above.

In test [5] the target is T1, recombinant His-tagged human FcγRIa …. Described as above.
Test [6] deals with T5, recombinant human neonatal Fc receptor FcRn (SinoBiological CT071-H27H-B) (human, UniProt P55899 24-297; P61769 21-119).
T5 construct: Composition of the bought protein is not described
Kind of test: SPR at pH 6.0; previous in-house experiments with the same assay set-up; previous in-house experiments, same assay set-up, 12 data points.

For test [7], the target named is T6, human FcγRIa on the cell surface (transfected CHO-S cells, M0/M1 macrophages, hMDM, FcγRI effector reporter … (human, UniProt P12314 16-374)).
T6 construct: whole, on cells; also called CD64
T6 sequence (P12314 16-374): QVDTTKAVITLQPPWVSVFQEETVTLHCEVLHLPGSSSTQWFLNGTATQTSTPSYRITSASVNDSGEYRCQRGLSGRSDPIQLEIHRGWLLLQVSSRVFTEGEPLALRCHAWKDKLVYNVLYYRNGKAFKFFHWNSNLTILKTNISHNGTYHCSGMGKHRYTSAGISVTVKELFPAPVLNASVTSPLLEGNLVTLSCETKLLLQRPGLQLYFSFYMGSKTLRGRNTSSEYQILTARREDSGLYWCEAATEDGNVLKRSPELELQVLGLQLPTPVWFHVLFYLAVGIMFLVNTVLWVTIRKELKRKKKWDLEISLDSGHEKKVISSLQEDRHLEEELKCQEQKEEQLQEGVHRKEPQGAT
The test can be described thus: flow cytometry on CHO-S cells transiently expressing human FcγRIa, PE goat anti-human IgG F(ab')2, % PE+ cells. For orientation: Flow cytometry measures light scatter and fluorescence of single cells or particles in a stream.

The target of test [8] is T7, recombinant His-tagged human FcγRIIIa, 176-Phe [F] / F158 variant (human, UniProt P08637 17-208).
T7 construct: also called FcγRIIIa-F; FcγRIIIa-F158
T7 sequence (P08637 17-208 limits assumed, change not shown): as the sequence (P08637 other isoform, or with tags, fused parts or gaps mutant limits assumed) above, with V160F counted along it
The test can be described thus: SPR (Biacore 8K), His-tagged FcγR captured on anti-His chip, antibody injected, binding response (RU), n=3.

The target of test [9] is T8, recombinant His-tagged human FcγRIIb (human, UniProt P31994 43-217, limits assumed).
T8 sequence (looked up): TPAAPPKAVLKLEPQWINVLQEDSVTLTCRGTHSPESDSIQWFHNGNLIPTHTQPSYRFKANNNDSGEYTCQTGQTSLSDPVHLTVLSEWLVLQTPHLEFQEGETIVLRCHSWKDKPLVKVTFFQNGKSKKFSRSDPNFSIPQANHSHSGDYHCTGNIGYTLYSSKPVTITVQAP
The description is as above.

B1: IgG1-ctrl (b12 antigen-binding domains, wild-type human IgG1m(f) Fc) (antibody)
heavy: not shown
light: EIVLTQSPGTLSLSPGERATFSCRSSHSIRSRRVAWYQHKPGQAPRLVIHGVSNRASGISDRFSGSGSGTDFTLTITRVEPEDFALYYCQVYGASSYTFGQGTKLERKRTVAAPSVFIFPPSDEQLKSGTASVVCLLNNFYPREAKVQWKVDNALQSGNSQESVTEQDSKDSTYSLSSTLTLSKADYEKHKVYACEVTHQGLSSPVTKSFNRGEC
Regarding B1, the “EC50 (read off the curve)” value is about 0.03 µM in [1], about 0.03 µM in test [5] and about 0.02 mg/L in [7]. For the same molecule, the binding result in [2], in [3], in test [4], in test [8] and in test [9] was “binds” each time. Besides, in [6], the Kd stood at 0.034 µM.
